Experimental findings from the nanobody polyreactivity screen of Harvey et al. (2022) are described below.

The nature of this series: yeast display, Sf9 membrane polyspecificity reagent, FACS + sequencing; frameworks hold sequencing errors. Summed up: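 Using colony PCR, genes from sorted yeast display clones were amplified, then sequenced on MiSeq at 2 × 250 and filtered by CDR length. The clones had been stained with 10% biotinylated, detergent-solubilized Sf9 membrane reagent for 1 hour at 4 °C and sorted by FACS into low and high (top ~1%) gates on anti-HA and streptavidin fluorescence. Polyreactivity labels come from the gate of origin.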
As to “QVHLVESGGGLVQAGGSLRLSCAASGFTFLKNAMVWNRQAPWKERELVAAITSSGGRTYYADSVKGRFTISRDNAKNTVYLQMNSLKPEDTAVYYCNKGPLPGYDYWGQGTQVTVSS”, the “polyreactivity (PSR sort gate)” value was “high polyreactivity”.

Consider “QVHLVESGGGLVQAGGSLRLSCAASGFTFLTNAMGWYRQAPGKERELVAAISQSGGRTYYADSVKGRFTISRDNAKNTVYLQMNSLKPEDTAVYYCAAGVRSTGRMDYWGQGTQVTVSS”, for which the “polyreactivity (PSR sort gate)” value is “high polyreactivity”.

Consider “QVHLVESGGGLVQAGGSLRLSCAASGFTFPYYAMGWYRQAPGKERELVATIRSGGSTYYADSVKGRFTISRDNAKNSVYLQMNSLKPEDTAVYYCAKYQGLYSYEKYGYWGQGTQVTVSS”, for which the “polyreactivity (PSR sort gate)” value is “low polyreactivity”.

As to “QVHLVESGGGLVQAGGSLRLSCAASGFTFRWYAMGGDRQAPGKERALVAAIDSTDITNYADSVKGRFTISRDNAKNTVYLQMNSLKPEDTAVYYCAAELYPALYPFRISGTYGYWGQGTLVTVSS”, the “polyreactivity (PSR sort gate)” value is on record as “high polyreactivity”.

Consider “QVHLVESGGGLVQAGGSLRLSCAASGFTFRYNAMGWYRQAPGKERELVAAISWSGGSTYYADSVKGRFTISRDNAKNTVYLQMNSLKPEDTAVYYCNVGWGRVYKSRYDYWGQGTQVTVSS”, for which the “polyreactivity (PSR sort gate)” value is “high polyreactivity”.

For the sequence “QVHLVESGGGLVQAGGSLRLSCAASGFTIASYDMGWYRQAPGKERELVAAISKGGGRTYYADSVKGRFTISRDNSKNTVYLQMNSLQPEDTAVYYCAAYAPYPRRAYDYWGQGTQVTVSS”, the “polyreactivity (PSR sort gate)” value is on record as “low polyreactivity”.

With “QVHLVESGGGLVQAGGSLRLSCAASGFTYSPYVMGWSRQAPGKEWELVASISKRGGGTYYADSVKGRFTISRDNAKKTFYLQMNRLKPEDTAVYYCNVVTATAYQGVDYWGQGSQVTVSS”, the “polyreactivity (PSR sort gate)” value is “high polyreactivity”.

Turning to “QVHLVESGGGLVQAGGSLRLSCAASGGIFDPYAMGWYRQAPGKERELVAAITNSGGSTYYADTLKGRFTISRDNAKNTVDLQMNSLKPEDTAVSYCAAEGLYVGYDYWGQGTEVTVSS”, the “polyreactivity (PSR sort gate)” value is reported as “low polyreactivity”.

As for “QVHLVESGGGLVQAGGSLRLSCAASGITDWIYAMGWYRQAPGKERELVAAITGRGGSTYYADSVKGRFTISRDKAKNTVYLQMNSLKPEVTAVDYCAAESWYSTYDYWGQGTQVTVSS”, the “polyreactivity (PSR sort gate)” value is reported as “high polyreactivity”.

As to “QVHLVESGGGLVQAGGSLRLSCAASGITFATYAMGWYRQAPGKERELVAAISGGGGRTYYADSVKGRFTISRDNAKNSVYLQMNSLKPEDTAVYYCATSQRSSQFYHWGQGTQVTVSS”, the “polyreactivity (PSR sort gate)” value is “high polyreactivity”.

For “QVHLVESGGGLVQAGGSLRLSCAASGITFYVYAMGWYRQAPGKERELVAAINYDSGSTYYADSVKGRFTISRDNAKNTVYLQMISLKPEDTAVYYCATDGVNPFYAYDYWGQGNQVTVSS”, the “polyreactivity (PSR sort gate)” value was “low polyreactivity”.

As for “QVHLVESGGGLVQAGGSLRLSCAASGITIWNNAMGWYRQAPGKERELVATISSNGGRTYYADSVKGRFTISLDTAKNTVYFQMNSLKPEDTAVYYCNAARRAYGYNYWGQGTQVTVSS”, the “polyreactivity (PSR sort gate)” value is on record as “low polyreactivity”.

Turning to “QVHLVESGGGLVQAGGSLRLSCAASGLIFRKYAMGWYRQAPGKERELVAAISSGGDTNYADSVKGRFTISRDNAKNTVYLQMNSLKPEDTAVYYCNADRKYWYGIALEYWGQGTQVTVSS”, the “polyreactivity (PSR sort gate)” value was “high polyreactivity”.

In the case of “QVHLVESGGGLVQAGGSLRLSCAASGLTFSSYSMGWYRQAPAKERELVATITSSGGDNTNYADSVKGRFTISRDNAKNTVYLQMNSLKPEDTAVYYFNKEGQQSYRWRMDYWGQGTQVTVSS”, the “polyreactivity (PSR sort gate)” value was “low polyreactivity”.

For “QVHLVESGGGLVQAGGSLRLSCAASGNIFYVYVMGWYRQAPGKERELVAYITSGASTYYSDSVKGRFTISRDNAKNTVYFQMNSLKPEDTAVYYCAAEALGGAGAYSTLYIYDYWGEGTQVTVSS”, the “polyreactivity (PSR sort gate)” value is “low polyreactivity”.

Regarding “QVHLVESGGGLVQAGGSLRLSCAASGNTFDINAMGWYRQAPGKERELVAAISFSGGDTYYADSVKGRFTISRDNAKNTVYLQMNILKPEHTAVYYCAAEVPDTDAYGYWGQGTQVTVSS”, the “polyreactivity (PSR sort gate)” value is “low polyreactivity”.

Take “QVHLVESGGGLVQAGGSLRLSCAASGNTFRWYDMGWYRQAPGKERELVAAITSSGSTTYYADSVKGRFTISRDNAKNTVYLQMNSLKPEDTAVFYCAARNYGPYDYWGQGTQVTVSS”: the “polyreactivity (PSR sort gate)” value is listed as “low polyreactivity”.

For “QVHLVESGGGLVQAGGSLRLSCAASGRIFARYAMGWYRQAPGKEREFVASISFRGGSTYYADSVKGRFTISRDNAKNTVYLQMNSLKPEDTAVYYCAAEGYTRAYSGFYWYDYWGQGTQVTVSS”, the “polyreactivity (PSR sort gate)” value was “high polyreactivity”.

On to “QVHLVESGGGLVQAGGSLRLSCAASGRIFDDYAMGWYRQAPGKERELVAAISWSGGSTYYADSVKVRFTISRDNAKNTVYLQRNSLKPEDTAVYYCAAPYHYYKRIGYDYWGQGTQVTVSS”, for which the “polyreactivity (PSR sort gate)” value is listed as “low polyreactivity”.

With “QVHLVESGGGLVQAGGSLRLSCAASGRIFFYYAMGWYRQAPGKERELVAAISSTGGSTNYADSVKGRFTISRDNAKNTVYLQMNSLKPEDTAVYYCNKDLYYAYDYWGQGTQVTVSS”, the “polyreactivity (PSR sort gate)” value was “low polyreactivity”.

As to “QVHLVESGGGLVQAGGSLRLSCAASGRIFGEYAMGWYRQAPGKERELVAAINSCGTSTNYADSVKGRLTFSRDNAKNTVYLQMNSLKPEDTAVYYCNAVGTYRPEYDSWVQGTQVTVSS”, the “polyreactivity (PSR sort gate)” value is reported as “low polyreactivity”.

For “QVHLVESGGGLVQAGGSLRLSCAASGRIFGIYAMGWYRQAPGKERELVALITGGGSTNYADSVKGRFTISRDNAKNTVYLQMNSLKPEDTAVYYCAATVRRIVGNITRYDYWGQGTQVTVSS”, the “polyreactivity (PSR sort gate)” value is “low polyreactivity”.

As to “QVHLVESGGGLVQAGGSLRLSCAASGRIFGLYAMGWYRQAPGKERELVASISYNGGSTYYADSVKGRFTISRDNAKNTVYLQMNSLKPEDTAVYYCAASLYYYGVRFGYWGQGTQVTVSS”, the “polyreactivity (PSR sort gate)” value is listed as “high polyreactivity”.

For “QVHLVESGGGLVQAGGSLRLSCAASGRIFKIYAMGWYRQAPGKERELVASISWSGGRTYYADSVKGGFTISRDNAKNTVYVQMNSLKPEDTAVYYCAATFSNSSYIYDFWGQGTHVTVSS”, the “polyreactivity (PSR sort gate)” value is reported as “high polyreactivity”.

On to “QVHLVESGGGLVQAGGSLRLSCAASGRIFNSNAMGWYIQEPGKERELAAAISKRGGSTFYADSVKGRFTISRDNGKNTVFLQMKSLKPEYSAVYYCNARRLSTGFDRYDYWGQGTQVTGSS”, for which the “polyreactivity (PSR sort gate)” value was “high polyreactivity”.

As to “QVHLVESGGGLVQAGGSLRLSCAASGRIFPGYAMGWYRQAPGKERELVAAISWIGGDTYYADSVKGRFTISRDNAKNTVYLQMNSLIPEDTAVYYCAARYGRHRVSWYATWRYGYWGQGTQVTVSS”, the “polyreactivity (PSR sort gate)” value is given as “low polyreactivity”.

Consider “QVHLVESGGGLVQAGGSLRLSCAASGRIFRVYAMGWYRQAPGKERELVAAIRWSTGSTYYADSVKGRFTISRDIAKNTVYLHMNSLKPEDTAVYYCASYYYSSCSKFDYWGQGTQVTVSS”, for which the “polyreactivity (PSR sort gate)” value was “high polyreactivity”.

On to “QVHLVESGGGLVQAGGSLRLSCAASGRIFTYKAMGWYRQAPGKERELVAAITYRRSSTYYADSVKGRFTISRDNAKNTVYLQMNSLKTEDTAVYYCAAVFSGFYYAYDYWGQGTQVTVSS”, for which the “polyreactivity (PSR sort gate)” value was “high polyreactivity”.

For “QVHLVESGGGLVQAGGSLRLSCAASGRILPFYAMGWYRQAPGKERELVATISWTSDSTYYADSVKGRFTISRDNAKNTVYLQMNSLKPEDTAVYYCAREYTYTYASTVIYDHWGQGTQVTVSS”, the “polyreactivity (PSR sort gate)” value is listed as “low polyreactivity”.

With “QVHLVESGGGLVQAGGSLRLSCAASGRILVRYAMGWYRQAPGKERELVAAISSSGSSTYYADSVKGRFTISRDNAKNTVYLQMNSLKPEDTAVYYCNKPDVTRGRDVYYWGQGTQVTVSS”, the “polyreactivity (PSR sort gate)” value is reported as “low polyreactivity”.

“QVHLVESGGGLVQAGGSLRLSCAASGRIRYYAMGWYRQAPGKERELVAAITSSGGSTYYADSVKGRFTISRDNAKNTVYLQMNSLKPEVTAVYYCIAVASLSGDYWGQGTQVTVSS”: the “polyreactivity (PSR sort gate)” value is “high polyreactivity”.

Take “QVHLVESGGGLVQAGGSLRLSCAASGRIYTGNTMVWYRQAPGKEREFVAAISGSGGRTFYADSVKGRFTISRDNEKNTVYLQMNSLKPEDTAVYYCAARRYRSLGSYGTGSFSYNYWGQGTQVTVSS”: the “polyreactivity (PSR sort gate)” value was “high polyreactivity”.

Regarding “QVHLVESGGGLVQAGGSLRLSCAASGRNFGTYAMGWYRQAPGKDRELVADISSSGTSTYYADSVKGRFTISRDNAKNTVYLQMNSLKPEDTAVSYCDVVAIDYAYDYYFRLGYDYWGQGTQVSVSS”, the “polyreactivity (PSR sort gate)” value was “low polyreactivity”.

“QVHLVESGGGLVQAGGSLRLSCAASGRTFDYNAMGWYRQATGKERELVAAIRFGGGSTYYADSVKGRFTISRDNAKNTVYLQMNSLKPEDTAVYYCNASPLWIGWEIVPVGSSHYDYWGQGTQVTVSS”: the “polyreactivity (PSR sort gate)” value is listed as “low polyreactivity”.

For “QVHLVESGGGLVQAGGSLRLSCAASGRTFGLYDMGWYRQAPGKERELVAGITRRGGRTYYADSVKGRFTISRDNAKNTVYLQMNSLKPEDTAVYYCAAGTIYLRHAQSPFDYWGQGTQVTVSS”, the “polyreactivity (PSR sort gate)” value is on record as “high polyreactivity”.

As for “QVHLVESGGGLVQAGGSLRLSCAASGRTFGYYAMGWYRHAPGKERELVAAISRSAATTYYADSVKGRFSISRDNAKNTVYLQMYSLKPDDTAVYYCAAGGRTYAPCDYGYWGQGTQVTVSS”, the “polyreactivity (PSR sort gate)” value is “high polyreactivity”.

With “QVHLVESGGGLVQAGGSLRLSCAASGRTFGYYAMGWYRPAPWKEWELVAAITQSGGSTYYADSVKGRFTISRDTAKITVYLQMHSLKPEDTAVYYCAADDKYFYPGNGYWGQGTQVTVSS”, the “polyreactivity (PSR sort gate)” value was “high polyreactivity”.

Consider “QVHLVESGGGLVQAGGSLRLSCAASGRTFIYYAMGWYRQAPGKERELVAAISSGGSTDYADSVKGRFTISRDNAKNTVYLQMNSLKPEDTAVYYCSAVVGYITYYGYDYWGQGTQVTVSS”, for which the “polyreactivity (PSR sort gate)” value was “low polyreactivity”.

On to “QVHLVESGGGLVQAGGSLRLSCAASGRTFRLYAMGWYRQAPGKERELVAAITRGGRTNYADSVKGRFTISRDNAKNTVFLQMISLKPEDTAVYYCAARYVERHTDYYYWGQGTQVTVSS”, for which the “polyreactivity (PSR sort gate)” value is listed as “low polyreactivity”.

For “QVHLVESGGGLVQAGGSLRLSCAASGRTFRSNAMGWYRQAPGKEREFVAAISGRGGITYYADSVKGRFTISRDNAKNTVYLQMNSLKPEDTAVYYCNRDVKYHDYVYVTAIKSPGYNYWGQGTQVTVSS”, the “polyreactivity (PSR sort gate)” value is listed as “low polyreactivity”.
